# Measurements taken from publication PMC4491177, “Co-translational capturing of nascent ribosomal proteins by their dedicated chaperones” (Nature Communications, 2015).
# Changes are numbered by the printed parent chain. Ends that are not written are not given here.
# T1: Rpl5 (endogenous, nascent) (S. cerevisiae (endogenous in yeast cells)) (UniProt P26321)
# T1 sequence: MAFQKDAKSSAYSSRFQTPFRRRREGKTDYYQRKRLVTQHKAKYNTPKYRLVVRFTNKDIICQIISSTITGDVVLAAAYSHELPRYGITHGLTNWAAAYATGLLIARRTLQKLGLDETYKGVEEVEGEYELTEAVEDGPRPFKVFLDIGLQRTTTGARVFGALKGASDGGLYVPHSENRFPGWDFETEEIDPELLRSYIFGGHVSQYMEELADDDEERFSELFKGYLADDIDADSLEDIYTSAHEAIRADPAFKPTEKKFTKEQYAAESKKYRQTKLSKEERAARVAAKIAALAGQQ
# T2: Rps3 (endogenous, nascent) (S. cerevisiae (endogenous in yeast cells)) (UniProt P05750)
# T2 sequence: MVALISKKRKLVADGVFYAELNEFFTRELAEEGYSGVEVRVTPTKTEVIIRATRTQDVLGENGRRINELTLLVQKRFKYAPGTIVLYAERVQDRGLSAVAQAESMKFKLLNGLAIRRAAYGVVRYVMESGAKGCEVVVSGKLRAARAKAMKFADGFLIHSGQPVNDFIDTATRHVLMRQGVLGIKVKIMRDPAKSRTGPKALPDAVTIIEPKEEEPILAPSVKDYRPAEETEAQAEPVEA
# T3: Rpl10 (endogenous) (S. cerevisiae (endogenous in yeast …, UniProt P41805 1-221))
# T3 sequence (looked up): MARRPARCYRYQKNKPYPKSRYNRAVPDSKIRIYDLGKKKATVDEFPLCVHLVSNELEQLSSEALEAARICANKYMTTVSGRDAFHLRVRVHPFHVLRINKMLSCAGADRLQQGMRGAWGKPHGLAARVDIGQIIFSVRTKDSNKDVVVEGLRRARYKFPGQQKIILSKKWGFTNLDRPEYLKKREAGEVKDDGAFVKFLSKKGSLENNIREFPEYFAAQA
# B1: full-length Rpl10: full-length ribosomal protein Rpl10 (protein)
# chain: T3 sequence (looked up)
# modifications: left off: Gal4 DNA-binding domain or Gal4 activation domain (which of the two is not stated), end not stated, kept
# B2: NTAP-Rrb1 (natural protein, S. cerevisiae, UniProt Q04225 1-511, looked up)
# chain: MSKRSIEVNEEQDRVVSAKTESHSVPAIPASEEQDAPKNDLEEQLSDEFDSDGEIIEIDGDDEINDEDDLRKKQEEAETLVQKDQSEGNKEKIQELYLPHMSRPLGPDEVLEADPTVYEMLHNVNMPWPCLTLDVIPDTLGSERRNYPQSILLTTATQSSRKKENELMVLALSNLAKTLLKDDNEGEDDEEDDEDDVDPVIENENIPLRDTTNRLKVSPFAISNQEVLTATMSENGDVYIYNLAPQSKAFSTPGYQIPKSAKRPIHTVKNHGNVEGYGLDWSPLIKTGALLSGDCSGQIYFTQRHTSRWVTDKQPFTVSNNKSIEDIQWSRTESTVFATAGCDGYIRIWDTRSKKHKPAISVKASNTDVNVISWSDKIGYLLASGDDNGTWGVWDLRQFTPSNADAVQPVAQYDFHKGAITSIAFNPLDESIVAVGSEDNTVTLWDLSVEADDEEIKQQAAETKELQEIPPQLLFVHWQKEVKDVKWHKQIPGCLVSTGTDGLNVWKTISV
# B3: Syo1-FTpA (natural protein)
# chain: MGRSKKRSRASSSRLNPLRKAGSNDNNKDTNVVNKKLQPLLQNLSSVVPNDRSIALSSISVLCEDAHMRQLLLKEKLVPIILNKLLNDSNSDIVVESFGLLRNLSLEEGYDVSIYLWRSDIWTSITSNFGRIVESLSALQAAEQQPQLKPAGKSKIESKRLLFDFADNLLSLVVALSNGSDDILNEILTESKINEIFQVISQLLKYGVEKLPINLFNTTLDLIYDLSSESFEFIDHVSNNELLSQFLNGLSPALHPQANELTKVLIEGIHCQFLDMKITYDQCNKMIHSVCHSINNIDPVQLVNDINNPVEIGPATSKDESSKVITKIKDYNAKRNESMIKLQSIEIAIDLITAIIEIVASKYESPESQEVAIPEELINTLTNFLPHVFMILKDTFTSRILIGWNNLIWLFVSLSLTELSGELLTTLWSYVTQLDSQDDLSIKIGRMGCIWALLKLIFPDGAFESENRALINVQMLNNSGFARGIIEEFQNNNDLELQQKCINVLSTYAMIQGQIDANKEIGQFFIQTLTQLNVRPEILIEMTNSLFQIYGDASYDYNEPIFVRGGFLSILKDQVVPNLRQQFKMVDKNKNPELKERCHDCFTTLDSFIHYKMNENSTNQ
# B4: Sqt1 (53C construct): WD-repeat β-propeller domain of Sqt1; deletion of amino acids 1–52 (protein)
# chain: MSNNSLTYFDKHTDSVFAIGHHPNLPLVCTGGGDNLAHLWTSHSQPPKFAGTLTGYGESVISCSFTSEGGFLVTADMSGKVLVHMGQKGGAQWKLASQMQEVEEIVWLKTHPTIARTFAFGATDGSVWCYQINEQDGSLEQLMSGFVHQQDCSMGEFINTDKGENTLELVTCSLDSTIVAWNCFTGQQLFKITQAEIKGLEAPWISLSLAPETLTKGNSGVVACGSNNGLLAVINCNNGGAILHLSTVIELKPEQDELDASIESISWSSKFSLMAIGLVCGEILLYDTSAWRVRHKFVLEDSVTKLMFDNDDLFASCINGKVYQFNARTGQEKFVCVGHNMGVLDFILLHPVANTGTEQKRKVITAGDEGVSLVFEVPN
# B5: Yar1-TAP (natural protein)
# chain: MGLHSEPLDQEDQDTIILDARAGDLDSLKDIFTTLVSPELLSTCKESESDSTALHMAAANGHIETVRYILETVSRANSAEDLKAFVNEVNKTGNTALHWASLNGKLDVVKLLCDEYEADPFIRNKFGHDAIFEAENSGKEEVETYFLKKYDVEPEDDEEDTQTEGKNSVQITKGTEIEQVTKEATEALREETEKLNINKD
# B6: Sqt1-TAP (natural protein, S. cerevisiae, UniProt P35184 1-431, looked up)
# chain: MEPQEEFITTEEVEQEIVPTVEVEQDVPVDIEGENDDDDEMMNDDEEALEVDMSNNSLTYFDKHTDSVFAIGHHPNLPLVCTGGGDNLAHLWTSHSQPPKFAGTLTGYGESVISCSFTSEGGFLVTADMSGKVLVHMGQKGGAQWKLASQMQEVEEIVWLKTHPTIARTFAFGATDGSVWCYQINEQDGSLEQLMSGFVHQQDCSMGEFINTDKGENTLELVTCSLDSTIVAWNCFTGQQLFKITQAEIKGLEAPWISLSLAPETLTKGNSGVVACGSNNGLLAVINCNNGGAILHLSTVIELKPEQDELDASIESISWSSKFSLMAIGLVCGEILLYDTSAWRVRHKFVLEDSVTKLMFDNDDLFASCINGKVYQFNARTGQEKFVCVGHNMGVLDFILLHPVANTGTEQKRKVITAGDEGVSLVFEVPN
# B7: Sqt1 Glu315 to lysine: Sqt1 variant, Glu315 mutated to lysine (protein, UniProt P35184 1-431, looked up, variant E315K)
# Ribosome assembly protein SQT1: B6 chain with E315K
# Legend:
# [1] = target: CtSqt1.52C (WD-repeat β-propeller domain of ctSqt1); experiment: isothermal titration calorimetry (ITC), C. thermophilum; type: binding, Chaetomium thermophilum
# Method: ITC experiments were performed on a MicroCal ITC 2000 instrument (GE Healthcare). The following peptides, corresponding to the N-terminal 19 (without N-terminal methionine) or 20 amino acids of S. cerevisiae and C. thermophilum Rpl10, were synthesized with a free acid group at the C terminus (peptides&elephants): Rpl10(1–20) NH2-[…]-COOH, Rpl10(2–20) NH2-[…]-COOH, ctRpl10(1–20) NH2-[…]-COOH and ctRpl10(2–20) NH2-[…]-COOH. Peptides (1 mg each) were dissolved in the appropriate volume of gel-filtration buffer (20 mM HEPES–NaOH (pH 7.5), 200 mM NaCl, 20 mM KCl and 20 mM MgCl2), which was used for the purification of ScSqt1.53C and ctSqt1.52C, to obtain 1 mM stock solutions. Concentrations of proteins were determined by measuring the A280 using a NanoDrop Lite spectrophotometer (Thermo Scientific). For determination of the C. thermophilum Sqt1/L10-N binding, 200 μl of ctSqt1.52C (10 μM) was added to the sample cell and 2 μl of 100 μM solutions of the peptides was titrated in at 25 °C. For determination of the S. cerevisiae Sqt1/L10-N binding, 200 μl of ScSqt1.53C (100 μM) was added to the sample cell and 2 μl of 1 mM solutions of the peptides were titrated in at 15 °C. ITC data were processed using the Origin ITC Software (OriginLab) and thermodynamic parameters were obtained by fitting the data to a One Set of Sites binding model.
# Rrb1 = experiment: Y2H interaction with Rrb1; type: binding, S. cerevisiae; settings: reporter strain PJ69-4A, HIS3 and ADE2 reporters, 3 days at 30 °C
# Method: (§1) For Y2H interaction assays, plasmids expressing bait proteins, fused to the Gal4 DNA-binding domain (G4BD), and prey proteins, fused to the Gal4 activation domain (G4AD), were co-transformed into reporter strain PJ69-4A. Y2H interactions were documented by spotting representative transformants in 10-fold serial dilution steps onto SC-Trp-Leu, SC-Trp-Leu-His (HIS3 reporter) and SC-Trp-Leu-Ade (ADE2 reporter) plates, which were incubated for 3 days at 30 °C. Growth on SC-Trp-Leu-His plates is indicative of a weak/moderate interaction, whereas only relatively strong interactions permit growth on SC-Trp-Leu-Ade plates.
# [2] = soluble expression in E. coli; type: physicochemical; settings: data not shown for Rpl10
# Rpl3 (endogenous) = Rpl3 (endogenous) (S. cerevisiae (endogenous in yeast …, UniProt P14126 1-387)); experiment: cell-based or functional assay
# Rpl3 (endogenous) (S. cerevisiae, sequence (P14126 whole entry): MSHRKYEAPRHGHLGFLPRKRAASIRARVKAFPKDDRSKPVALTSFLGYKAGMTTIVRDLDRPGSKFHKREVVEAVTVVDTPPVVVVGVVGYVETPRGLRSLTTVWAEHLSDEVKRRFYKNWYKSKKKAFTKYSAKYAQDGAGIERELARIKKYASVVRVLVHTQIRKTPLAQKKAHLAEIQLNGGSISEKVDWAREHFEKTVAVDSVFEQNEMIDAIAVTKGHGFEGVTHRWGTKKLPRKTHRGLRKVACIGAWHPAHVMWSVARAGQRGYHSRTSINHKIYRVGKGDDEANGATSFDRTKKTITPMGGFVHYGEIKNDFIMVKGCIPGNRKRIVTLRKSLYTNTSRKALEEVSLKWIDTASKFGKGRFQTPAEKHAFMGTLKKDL
# [3] = target: T1, Rpl5 (endogenous, nascent) (S. cerevisiae (endogenous in yeast cells))
# Rpl10 = experiment: Y2H interaction with Rpl10; type: binding, S. cerevisiae; settings: Sqt1 variants; PJ69-4A, HIS3 and ADE2 reporters, 3 days at 30 °C
# Method: as §1
# [4] = target: T2, Rps3 (endogenous, nascent) (S. cerevisiae (endogenous in yeast cells))
# Rpl10 (endogenous) = target: T3, Rpl10 (endogenous); experiment: cell-based or functional assay
molecule,measurement,setting,value
"H-MARRPARCYRYCKNKPYPKS-OH (cysteine pairing not given here) [CtL10-N(1-20), N-terminal 20 amino acids of C. thermophilum Rpl10]",Kd,"[1]; 10 μM ctSqt1.52C in cell, 2 μl of 100 μM peptide titrated, 25 °C, 20 mM HEPES–NaOH (pH 7.5), 200 mM NaCl, 20 mM KCl, 20 mM MgCl2, One Set of Sites, read-out: dissociation constant (Kd)",~442 nM
same,effect of Met1 on the interaction,[1]; ctSqt1,did not abolish the interaction completely
"amino acids 1–15 of Rpl3: amino acids 1–15 of Rpl3, Y2H bait fused to G4BD (MSHRKYEAPRHGHLG; also: fused to Gal4 DNA-binding domain; UniProt P14126 1-15, looked up, fragment)",Y2H interaction with Rrb1,Rrb1,sufficient to yield a robust Y2H interaction with full-length Rrb1
B1,soluble expression in E. coli,[2],expressed as an insoluble protein
B2,"enrichment of the RPL3 mRNA in the NTAP-Rrb1 purification (IgG-sepharose pull-down from cycloheximide-treated cells, TEV eluate, real-time qRT–PCR)",Rpl3 (endogenous),~100 fold
B3,"enrichment of the RPL5 mRNA in the Syo1-FTpA purification (IgG-sepharose pull-down from cycloheximide-treated cells, TEV eluate, real-time qRT–PCR)",[3],100 fold
B4,Y2H interaction with Rpl10,Rpl10,sufficient to mediate the interaction both with full-length or the N-terminal residues
B5,"enrichment of the RPS3 mRNA in the Yar1-TAP purification (IgG-sepharose pull-down from cycloheximide-treated cells, TEV eluate, real-time qRT–PCR)",[4],100 fold
B6,"enrichment of the RPL10 mRNA in the Sqt1-TAP purification (IgG-sepharose pull-down from cycloheximide-treated cells, TEV eluate, real-time qRT–PCR)",Rpl10 (endogenous),~25 fold
B7,Y2H interaction with Rpl10,Rpl10,abolished the interaction between Sqt1 and Rpl10
